Assay [1] deals with T1, human TGFβ2, mature receptor-binding domain (human, UniProt P09858 303-414 (pig entry), The mature TGFβ2 is a disulfide-linked homodimer of this 112-residue chain. The 4A11 epitope spans both monomers (p-1207).).
T1 construct: Peprotech; also called TGFb2
T1 sequence: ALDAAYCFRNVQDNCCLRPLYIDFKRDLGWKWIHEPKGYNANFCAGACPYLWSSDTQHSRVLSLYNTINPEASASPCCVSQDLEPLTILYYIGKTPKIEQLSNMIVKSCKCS
Description: SPR.

For assay [2], the target named is T2, human TGFβ3, mature dimeric form (human, UniProt P10600 301-412).
T2 construct: Peprotech, expressed in E. coli; also called TGFb3
T2 sequence: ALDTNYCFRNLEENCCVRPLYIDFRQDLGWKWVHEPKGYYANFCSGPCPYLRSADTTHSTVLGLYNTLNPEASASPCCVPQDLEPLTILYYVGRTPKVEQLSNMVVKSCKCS
The assay is described as follows: SPR.

Assay [3] has as its target T1, human TGFβ2, mature receptor-binding …. Description: SPR. The source holds these as a separate data set.
For assay [4], the target named is T2, human TGFβ3, mature dimeric form. Description: SPR. This is another data set of the same source.
The target in assay [5] is T1, human TGFβ2, mature receptor-binding …. The assay is described as follows: BIAcore T200. The gist of the method:
(§1)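 Humanized antibodies captured on protein A CM5 chip (~100 RU), then 3-fold serial dilutions of TGFβ (0.02–5 nM) injected in HBS-EP pH 7.4 at 25° C., 50 μl/min. kon and koff from 1:1 Langmuir fit; KD = koff/kon.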

In assay [6] the target is T2, human TGFβ3, mature dimeric form. Description: BIAcore T200. The gist of the method:
as §1

Assay [7] addresses T3, human TGFβ1, mature receptor-binding domain (human, UniProt P01137 279-390).
T3 construct: Peprotech; also called TGFb1
Description: BIAcore T200. The gist of the method: as §1

In assay [8] the target is T1, human TGFβ2, mature receptor-binding …. Description: BIAcore T200. The gist of the method:
as §1
This is another data set of the same source.

Assay [9] addresses T2, human TGFβ3, mature dimeric form. The assay is described as follows: BIAcore T200. The gist of the method: as §1
This is another data set of the same source.

For assay [10], the target named is T3, human TGFβ1, mature receptor-binding …. The assay is described as follows: BIAcore T200. The method, then:
(§2) For binding affinity determinations of all humanized 2A10 antibodies, Surface Plasmon Resonance (SPR) measurement with a BIAcore™-T200 instrument was used. Briefly, series S CM5 biosensor chip with protein A was first applied to capture each humanized 2A10 variant to achieve approximately 100 response units (RU) on each flow cell, following by injection of 3-fold serial dilutions of human TGFβ1, TGFβ2 or TGFβ3 (0.02 nM to 5 nM) in HBS-EP buffer (0.01M HEPES pH 7.4, 0.15M NaCl, 3 mM EDTA and 0.05% v/v surfactant P20) at 25° C. with a flow rate of 50 μl/min for kinetics measurement. Association rates (ko.) and dissociation rates (koff) were calculated using a simple one-to-one Langmuir binding model (BIAcore T200 evaluation software version 2.0) to determine the equilibrium dissociation constant (KD), which was calculated as the ratio koff/kₒₙ.
(§3) Binding affinity determinations of all humanized 4A11 antibodies were performed using SPR measurement with a BIAcore™-T200 instrument, as described above in Example 6 ([…]).
The source holds these as a separate data set.

Assay [11] concerns the target T1, human TGFβ2, mature receptor-binding …. Description: BIAcore T200. How it is done: as §2, §3
The source holds these as a separate data set.

The target in assay [12] is T2, human TGFβ3, mature dimeric form. The assay is described as follows: BIAcore T200. How it is done:
as §2, §3
This is another data set of the same source.

The target of assay [13] is T1, human TGFβ2, mature receptor-binding …. The assay is described as follows: cell-based or functional assay.
Assay [14] has as its target T2, human TGFβ3, mature dimeric form. The assay is described as follows: cell-based or functional assay.
In assay [15] the target is T1, human TGFβ2, mature receptor-binding …. The assay is described as follows: Biacore SPR.
For assay [16], the target named is T4, mouse TGFβ2, mature peptide (mouse, UniProt P27090 303-414).
T4 construct: mature
T4 sequence (looked up): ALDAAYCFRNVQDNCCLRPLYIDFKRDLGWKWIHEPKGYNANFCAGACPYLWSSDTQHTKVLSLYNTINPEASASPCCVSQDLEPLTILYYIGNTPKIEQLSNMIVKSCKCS
Description: Biacore SPR.

For assay [17], the target named is T3, human TGFβ1, mature receptor-binding …. The assay is described as follows: cell-based or functional assay.
In assay [18] the target is T1, human TGFβ2, mature receptor-binding …. Description: cell-based or functional assay. The source holds these as a separate data set.
Assay [19] addresses T2, human TGFβ3, mature dimeric form. Description: cell-based or functional assay. This is another data set of the same source.
For assay [20], the target named is T3, human TGFβ1, mature receptor-binding …. Description: cell-based or functional assay. The source holds these as a separate data set.
For assay [21], the target named is T1, human TGFβ2, mature receptor-binding …. The assay is described as follows: cell-based or functional assay. The source holds these as a separate data set.
Assay [22] concerns the target T2, human TGFβ3, mature dimeric form. Description: cell-based or functional assay. This is another data set of the same source.

Where two headings read alike, the source gives them in different places. Where only a bound is given, the exact number is not on record here.

T3 sequence (P01137 279-390 limits assumed): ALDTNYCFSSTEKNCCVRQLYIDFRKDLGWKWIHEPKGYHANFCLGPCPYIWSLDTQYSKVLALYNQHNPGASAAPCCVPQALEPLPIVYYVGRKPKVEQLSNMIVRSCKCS

B1: 4A11 (antibody, V domains shown)
VH: QSLEESGGRLVTPGTPLTLTCTVSGFSLSSYTVNWVRQAPGKGLEWIGYISYGGSAYYASWANGRFTISKTSATVDLKITSPTTEDTATYFCARHMQVGGAPTGSMAAFDPWGPGTLVTVSS
VL: AAVLTQTPSPVSAAVGGTVSISCQSSQSVYNNNYLSWFQQKPGQPPKLLIYGASTLTSGVPSRFKGSGSGTQFTLTISDVQCDDAATYYCAGGYSGSSDKYAFGGGTEVVVKG
notes: anti-TGFβ2/3, recombinant rabbit monoclonal; some paragraphs print the H/L pair as 32/33; also called Rb1.4A11; Rbt 4A11
With B1, the Kd was less than 10 pM in assay [1]; less than 10 pM in assay [2]; 8 pM in [3]; 5 pM in assay [4]; 1.6 pM in assay [5]; no more than 1.2 pM in assay [6]. For the same molecule, the equilibrium dissociation constant (Kd) is greater than 5000 pM in assay [7]; 1.6 pM in assay [8]; 1.2 pM in [9]; greater than 5000 pM in [10]; 1.6 pM in assay [11]; no more than 1.2 pM in [12]. Further, the values for the Kd in assay [15] and in assay [16] were 8 pM and less than 2 pM, respectively. Besides, the “cell-based IC50” value in assay [13] and in assay [14] was less than 250 pM in each case. The “Blocking IC50” value in [17] is greater than 500000 pM; in assay [18] it was 250 pM; in [19], 30 pM. For the same molecule, the results for the “HEKBlue TGFβ blocking IC50” value in assay [20], in [21] and in assay [22] were greater than 200000 pM, 90 pM and 60 pM, respectively.

The values above are taken from patent publication US20210301005A1 (Genentech, published 2021).
